Experimental data: patent US20030073629A1, “Omi and domains thereof that disrupt IAP-caspase interaction” (priority 2001, published 2003)
One block for each molecule: values may come before it.

How the values were obtained:
MCF-7 cells [1] = assay: Apoptosis of MCF-7 cells transfected with cytosolic Omi-GFP fusion proteins; type: cell-based; conditions: 36 hours following transfection
Experimental: (§1) FIG. 20 provides schematic diagrams of the Omi-GFP and GFP-IETD-Omi constructs used to assay the ability of Omi to induce apoptosis or to enhance apoptosis by other stimuli.
FIG. 21 is a bar graphic representation of the percentages of GFP-positive apoptotic MCF-7 cells 36 hours following transfection with M-Omi-S/A-GFP or pEGFP-N1 alone or M-Omi-GFP together with empty vector or expression construct encoding XIAP, XIAP-BIR3, or caspase-9DN. The cells were also transfected with M-Omi-GFP expression construct in the presence of zVAD-FMK (20 μM).

XIAP-BIR3 = biological target: T1, XIAP-BIR3 (Homo sapiens, UniProt P98170); assay: GST-BIR3 precipitation of extracts of transfected 293T cells; type: binding; conditions: 24 hours after transfection
T1 construct: Omi associates directly with the BIR3 domain of XIAP
T1 sequence (P98170 238-358 limits assumed): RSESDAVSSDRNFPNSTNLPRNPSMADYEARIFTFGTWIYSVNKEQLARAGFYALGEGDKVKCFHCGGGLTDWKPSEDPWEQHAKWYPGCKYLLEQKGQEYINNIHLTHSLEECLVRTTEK
Experimental: FIG. 24 is a scanned image of an immunoblot with Flag-HRP antibody of 293T cells extracts precipitated with GST-BIR3 24 hours after transfection with the indicated expression constructs extracts.
(§2) Next, the contribution of the IAP binding activity of Omi to its proapoptotic activity was tested. The MTS of Omi was replaced with a GFP-IETD sequence and mutated at its active site Ser306 to Ala (FIG. 20, GFP-IETD-AVP). Of note, the presence of the IETD sequence between GFP and Omi-S/A allowed caspase-dependent cleavage at the IETD site after the Asp residue and release of mature Omi-S/A in the cytosol of the transfected 293 and MCF-7 cells (FIG. 23). […] Taken together, Omi not only can induce apoptosis through its serine protease activity but also via its ability to bind and neutralize IAPs.

MCF-7 cells [2] = assay: Immunofluorescence confocal microscopy of Omi in MCF-7 cells; type: cell-based; conditions: TRAIL 1 μg/ml; untreated cells mostly punctate and perinuclear
[3] = biological target: T2, caspase-9 interaction with XIAP (procaspase-3 activation) (Homo sapiens, UniProt P98170); assay: Procaspase-3 activation in XIAP-containing S100 extracts stimulated with cytochrome c and dATP; type: biochemical; conditions: S100 extracts with purified XIAP, cytochrome c plus dATP; 10, 50 or 300 ng protein
T2 construct: caspase-9: endogenous in 293T/HEK293 S100 extract
T2 sequence (P98170 whole entry): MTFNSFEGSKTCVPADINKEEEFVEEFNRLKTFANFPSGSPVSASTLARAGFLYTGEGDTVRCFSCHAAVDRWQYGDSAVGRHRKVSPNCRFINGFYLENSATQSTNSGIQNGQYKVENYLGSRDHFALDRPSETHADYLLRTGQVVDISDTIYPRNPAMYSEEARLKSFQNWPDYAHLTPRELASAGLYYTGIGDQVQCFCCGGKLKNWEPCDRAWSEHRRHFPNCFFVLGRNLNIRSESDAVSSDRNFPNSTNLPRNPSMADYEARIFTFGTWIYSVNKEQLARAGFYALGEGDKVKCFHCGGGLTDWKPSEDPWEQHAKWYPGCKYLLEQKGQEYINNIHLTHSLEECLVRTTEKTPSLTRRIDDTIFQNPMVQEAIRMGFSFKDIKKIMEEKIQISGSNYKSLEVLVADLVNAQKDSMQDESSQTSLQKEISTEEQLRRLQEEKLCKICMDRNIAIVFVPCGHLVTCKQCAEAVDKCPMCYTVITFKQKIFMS
Experimental: FIG. 17 is a scanned image of an autoradiogram, representing SDS-PAGE analysis of ^35S-labeled procaspase-3 following stimulation of 293T S100 extracts (20μg) mixed with purified XIAP (50 ng) with cytochrome c (0.5 μg) plus dATP (1 mM), in the presence of increasing amounts (10, 50, or 300 ng, respectively) of purified mature WT Omi, Omi-ΔAVPS, Omi-S306A, or mature Smac in 10 μl reaction volume. In the fifth lane, S100 extracts were incubated with. 300 ng of WT Omi without XIAP.
Next, it was determined whether Omi, like Smac, promotes caspase-9 activity in HEK293 S100 extracts in the presence of XIAP. To measure the caspase-9 activity in these extracts, ^35S-labeled procaspase-3 was added to the S100 extracts and stimulated the extracts with cytochrome c and dATP. […] These observations indicate that Omi, like Smac, is able to disrupt the interaction of caspase-9 with XIAP in the S100 extracts to promote procaspase-3 activation.

cIAP1 = biological target: T3, cIAP1 (Homo sapiens, UniProt Q13490); assay: In vitro interaction of immobilized His6-tagged protein with 35S-labeled cIAP1; type: binding; conditions: immobilized on Talon-affinity resin; in vitro-translated 35S-labeled cIAP1
T3 construct: made in house; host or cells: in vitro translation (cell-free)
T3 sequence (Q13490 whole entry, species assumed): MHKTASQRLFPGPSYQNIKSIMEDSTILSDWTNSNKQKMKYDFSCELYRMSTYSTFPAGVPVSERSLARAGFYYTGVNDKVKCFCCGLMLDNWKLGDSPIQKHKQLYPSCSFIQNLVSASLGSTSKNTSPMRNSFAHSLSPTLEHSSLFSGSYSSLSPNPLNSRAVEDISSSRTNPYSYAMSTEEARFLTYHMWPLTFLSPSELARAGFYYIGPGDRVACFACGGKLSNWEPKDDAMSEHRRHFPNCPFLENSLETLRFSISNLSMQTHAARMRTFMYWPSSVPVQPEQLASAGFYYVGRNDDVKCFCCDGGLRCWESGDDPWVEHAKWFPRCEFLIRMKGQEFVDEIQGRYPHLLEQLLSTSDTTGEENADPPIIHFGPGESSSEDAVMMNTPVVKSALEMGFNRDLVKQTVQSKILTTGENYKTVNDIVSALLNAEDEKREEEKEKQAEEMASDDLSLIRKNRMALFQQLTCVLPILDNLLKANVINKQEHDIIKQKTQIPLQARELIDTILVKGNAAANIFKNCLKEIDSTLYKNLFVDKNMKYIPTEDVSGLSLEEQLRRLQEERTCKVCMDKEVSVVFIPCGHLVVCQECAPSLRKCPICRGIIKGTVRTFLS
Experimental: (§3) FIG. 8 is a scanned image of an autoradiogram representing SDS-PAGE analysis of interaction of XIAP, cIAP1, and cIAP2 with mature Omi and Smac. Immobilized C-terminal His6-tagged mature Omi or Smac, or GST protein was incubated with in vitro-translated ^35S-labeled XIAP (first panel), cIAP1 (second panel), or cIAP2 (third panel). The fourth panel is a scanned image of a Coomassie stained gel of the immobilized proteins.
(§4) C-terminal His6-tagged mature Omi or Smac, or a GST protein were immobilized onto Talon-affinity resin. The bound resins were incubated with in vitro-translated ^35S-labeled XIAP (first panel), cIAP1 (second panel) or cIAP2 (third panel), washed extensively, and then analyzed by SDS polyacrylamide gel electrophoresis and autoradiography. GST was used as a negative control (second lane of each panel). The fourth panel, represents a scanned image of a Coomassie stained gel of the immobilized proteins. […] The in vitro assays were performed as described in Srinivasula, S. M. et al., J Biol Chem 275:36152-36157, 2000.

GST-BIR3-E314S mutant = biological target: T4, GST-BIR3-E314S mutant (Homo sapiens, UniProt P98170, E314S); assay: Interaction of purified recombinant proteins with GST-BIR3-E314S mutant; type: binding; conditions: purified C-terminal His6-tagged recombinant protein
T4 construct: Omi associates directly with the BIR3 domain of XIAP
T4 sequence (P98170 238-358 E314S limits assumed): as the sequence (P98170 238-358 limits assumed) above, with E77S counted along it
Excerpt: (§5) FIGS. 7A and 7B are scanned images of Coomassie stained gels representing SDS-PAGE analysis of purified C-terminal His6-tagged recombinant wild type mature Omi (WT), Omi-ΔAVPS, Omi-S306A, and mature Smac (7A) and recombinant Omi and Smac proteins with GST-BIR1, GST-BIR2, GST-BIR3, or GST-BIR3-E314S fusion proteins (7B).
To confirm that Omi associates directly with the BIR3 domain of XIAP but not with the Smac protein, Smac was depleted from the 293 extracts using a Smac monoclonal antibody. Specifically, 293 cellular extracts were either left untreated (undepleted lane of FIG. 4) or depleted with a Smac antibody (lane depleted of FIG. 4). The undepleted and depleted extracts were incubated with the GST-BIR3 protein and the bound proteins were eluted as above. The eluates were then analyzed by far-western blotting with ^35S-XIAP and by western blotting with the Smac antibody as described above (see FIG. 4, left and right panels, respectively). […] The last lane of each panel in FIG. 4 represents the 293 cellular extracts that were bound to the E314S mutant GST-BIR3 fusion protein. […] The asterisk in FIG. 4 indicates non-specific bands and the arrow indicates the IgG band. […]

[4] = tested on: GST-BIR1, 2 fusion protein; assay: Interaction of purified recombinant proteins with GST-BIR1, 2 fusion protein; type: binding, human; conditions: purified C-terminal His6-tagged recombinant protein
Sequence of GST-BIR1, 2 fusion protein (P98170 124-240 limits assumed): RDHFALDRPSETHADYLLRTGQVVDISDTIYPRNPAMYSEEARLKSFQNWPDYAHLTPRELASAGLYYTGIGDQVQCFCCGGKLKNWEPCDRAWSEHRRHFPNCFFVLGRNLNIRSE
Excerpt: as §5
(§6) To determine whether a recombinant Omi lacking the first 133 residues (mature Omi) can interact with the GST-BIR3 fusion protein, this protein was expressed with a C-terminal His6 tag in bacteria and purified to apparent homogeneity (see FIG. 7B). […] FIGS. 7A and 7B show scanned images of Coomassie stained gels representing SDS-PAGE analysis of purified C-terminal His6-tagged recombinant wild type mature Omi (WT), Omi-ΔAVPS, Omi-S306A, and mature Smac (FIG. 7A) and recombinant Omi and Smac proteins with GST-BIR1, 2, GST-BIR3 or GST-BIR3-E314S fusion proteins (FIG. 7B).

[5] = biological target: T5, GST-BIR3 fusion protein (BIR3 domain of human XIAP) (Homo sapiens, UniProt P98170); assay: Interaction of purified recombinant proteins with GST-BIR3 fusion protein (SDS-PAGE, Coomassie); type: binding; conditions: purified C-terminal His6-tagged recombinant protein; wild type GST-BIR3
T5 construct: Omi associates directly with the BIR3 domain of XIAP
T5 sequence (P98170 238-358 limits assumed): as the sequence (P98170 238-358 limits assumed) above
Excerpt: as §5, §6

cIAP2 = biological target: T6, cIAP2 (Homo sapiens, UniProt Q13489); assay: In vitro interaction of immobilized His6-tagged protein with 35S-labeled cIAP2; type: binding; conditions: immobilized on Talon-affinity resin; in vitro-translated 35S-labeled cIAP2
T6 construct: made in house; host or cells: in vitro translation (cell-free)
T6 sequence (Q13489 whole entry, species assumed): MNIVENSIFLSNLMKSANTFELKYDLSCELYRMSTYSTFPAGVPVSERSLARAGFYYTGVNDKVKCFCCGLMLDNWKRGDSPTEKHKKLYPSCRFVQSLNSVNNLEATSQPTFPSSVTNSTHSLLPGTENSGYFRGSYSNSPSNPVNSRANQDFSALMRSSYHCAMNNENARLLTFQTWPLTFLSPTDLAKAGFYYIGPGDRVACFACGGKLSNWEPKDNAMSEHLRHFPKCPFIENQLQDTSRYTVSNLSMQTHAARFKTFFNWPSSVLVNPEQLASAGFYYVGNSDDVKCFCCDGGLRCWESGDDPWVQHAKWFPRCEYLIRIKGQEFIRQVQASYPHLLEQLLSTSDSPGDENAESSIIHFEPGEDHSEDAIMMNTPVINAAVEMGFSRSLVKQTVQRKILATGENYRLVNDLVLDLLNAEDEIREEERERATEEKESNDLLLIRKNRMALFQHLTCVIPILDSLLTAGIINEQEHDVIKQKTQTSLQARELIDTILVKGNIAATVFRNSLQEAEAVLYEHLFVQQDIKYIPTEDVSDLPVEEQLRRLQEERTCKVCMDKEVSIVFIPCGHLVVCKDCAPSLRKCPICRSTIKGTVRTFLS
Experimental: as §3, §4

endogenous XIAP = biological target: T7, endogenous XIAP (Homo sapiens, UniProt P98170); assay: Co-immunoprecipitation with endogenous XIAP in transfected 293T cells; type: cell-based; conditions: 293T cells transfected with C-terminal Flag-tagged Omi precursors, XIAP western blot
T7 construct: endogenous in cells; host or cells: 293T cells
T7 sequence (P98170 whole entry): as the sequence (P98170 whole entry) above
Excerpt: FIG. 9 is a scanned image of a blot representing western blot analysis using an XIAP monoclonal antibody (upper panel) or Flag antibody (middle panel) of 293T cells transfected with constructs encoding C-terminal Flag-tagged Omi wild type or mutant precursors and immunoprecipitated with Flag antibody. The lower panel is a scanned image of a blot representing total extracts probed with the XIAP antibody. Arrows indicate IgG bands.

MCF-7 cells [6] = assay: TRAIL-induced apoptosis of MCF-7 cells transfected with GFP-IETD-Omi constructs; type: cell-based; conditions: TRAIL for 16 hours, 24 hours following transfection; versus GFP transfected control cells
Experimental: as §1
FIG. 25 is a bar graphic representation of the percentages of the determined round apoptotic MCF-7 cells that were left untreated (−) or treated with TRAIL (+) for 16 hours 24 hours following transfection with the indicated expression constructs.
as §2

- binding to XIAP-BIR3 (GST-BIR3) (XIAP-BIR3): do not bind XIAP-BIR3
B1: M-Omi-S/A-GFP: inactive (S306A) Omi-GFP fusion protein without the MTS (protein)
chain: MAVPSPPPASPRSQYNFIADVVEKTAPAVVYIEILDRHPFLGREVPISNGSGFVVAADGLIVTNAHVVADRRRVRVRLLSGDTYEAVVTAVDPVADIATLRIQTKEPLPTLPLGRSADVRQGEFVVAMGSPFALQNTITSGIVSSAQRPARDLGLPQTNVEYIQTDAAIDFGNAGGPLVNLDGEVIGVNTMKVTAGISFAIPSDRLREFLHRGEKKNSSSGISGSQRRYIGVMMLTLSPSILAELQLREPSFPDVQHGVLIHKVILGSPAHRAGLRPGDVILAIGEQMVQNAEDVYEAVRTQSQLAVQIRRGRETLTLYVTPEVTE
modifications: left off: large carriers
- induction of apoptosis in MCF-7 cells (MCF-7 cells [1]): not the inactive M-Omi-S/A-GFP, was able to induce apoptosis

B2: TRAIL: apoptotic stimulus acting by TRAIL-receptor ligation (protein, UniProt P50591 1-281, looked up)
Tumor necrosis factor ligand …: MAMMEVQGGPSLGQTCVLIVIFTVLLQSLCVAVTYVYFTNELKQMQDKYSKSGIACFLKEDDSYWDPNDEESMNSPCWQVKWQLRQLVRKMILRTSEETISTVQEKQQNISPLVRERGPQRVAAHITGTRGRSNTLSSPNSKNEKALGRKINSWESSRSGHSFLSNLHLRNGELVIHEKGFYYIYSQTYFRFQEEIKENTKNDKQMVQYIYKYTSYPDPILLMKSARNSCWSKDAEYGLYSIYQGGIFELKENDRIFVSVTNEHLIDMDHEASFFGAFLVG
- immunofluorescence staining pattern of Omi (MCF-7 cells [2]): showed diffused immunofluorescence staining of Omi

- interaction with cIAP1 (cIAP1): found to also interact with cIAP1
- interaction with GST-BIR3-E314S mutant (GST-BIR3-E314S mutant): not with the GST-BIR3-E314S mutant
B3: mature Omi: Omi polypeptide comprising residues 134-458 of SEQ ID NO:1; recombinant with C-terminal His6 tag (protein, listed as Homo sapiens)
chain: AVPSPPPASPRSQYNFIADVVEKTAPAVVYIEILDRHPFLGREVPISNGSGFVVAADGLIVTNAHVVADRRRVRVRLLSGDTYEAVVTAVDPVADIATLRIQTKEPLPTLPLGRSADVRQGEFVVAMGSPFALQNTITSGIVSSAQRPARDLGLPQTNVEYIQTDAAIDFGNSGGPLVNLDGEVIGVNTMKVTAGISFAIPSDRLREFLHRGEKKNSSSGISGSQRRYIGVMMLTLSPSILAELQLREPSFPDVQHGVLIHKVILGSPAHRAGLRPGDVILAIGEQMVQNAEDVYEAVRTQSQLAVQIRRGRETLTLYVTPEVTE
modifications: C-terminal His6 tag
- promotion of procaspase-3 activation [3]: able to promote procaspase-3 activation in the XIAP-containing S100 extracts almost to the same extent as Smac
- interaction with GST-BIR1, 2 fusion protein [4]: able to interact with the GST-BIR1, 2 fusion protein
- interaction with GST-BIR3 fusion protein [5]: able to interact equally with the wild type GST-BIR3 protein
- interaction with cIAP2 (cIAP2): found to also interact with cIAP1 and cIAP2
- interaction with endogenous XIAP in vivo (endogenous XIAP): can also interact with endogenous XIAP in vivo

B4: GFP-IETD-SSA: GFP-IETD-Omi-S/A with the AVPS motif mutated to SSAS motif (protein)
chain: SSASPPPASPRSQYNFIADVVEKTAPAVVYIEILDRHPFLGREVPISNGSGFVVAADGLIVTNAHVVADRRRVRVRLLSGDTYEAVVTAVDPVADIATLRIQTKEPLPTLPLGRSADVRQGEFVVAMGSPFALQNTITSGIVSSAQRPARDLGLPQTNVEYIQTDAAIDFGNAGGPLVNLDGEVIGVNTMKVTAGISFAIPSDRLREFLHRGEKKNSSSGISGSQRRYIGVMMLTLSPSILAELQLREPSFPDVQHGVLIHKVILGSPAHRAGLRPGDVILAIGEQMVQNAEDVYEAVRTQSQLAVQIRRGRETLTLYVTPEVTE
- enhancement of TRAIL-induced apoptosis (MCF-7 cells [6]): abolished the apoptotic enhancement activity
- binding to XIAP-BIR3 (GST-BIR3) (XIAP-BIR3): abolished the apoptotic enhancement activity of Omi-S/A and the ability to bind to BIR3

B5: GFP-IETD-AVP: Omi with MTS replaced by a GFP-IETD sequence and active site Ser306 mutated to Ala (protein)
chain: AVPSPPPASPRSQYNFIADVVEKTAPAVVYIEILDRHPFLGREVPISNGSGFVVAADGLIVTNAHVVADRRRVRVRLLSGDTYEAVVTAVDPVADIATLRIQTKEPLPTLPLGRSADVRQGEFVVAMGSPFALQNTITSGIVSSAQRPARDLGLPQTNVEYIQTDAAIDFGNAGGPLVNLDGEVIGVNTMKVTAGISFAIPSDRLREFLHRGEKKNSSSGISGSQRRYIGVMMLTLSPSILAELQLREPSFPDVQHGVLIHKVILGSPAHRAGLRPGDVILAIGEQMVQNAEDVYEAVRTQSQLAVQIRRGRETLTLYVTPEVTE
- enhancement of TRAIL-induced apoptosis (MCF-7 cells [6]): enhanced TRAIL-induced apoptosis in these cells several folds above the GFP transfected control cells
